Reference: paper PMC10119312, “Structural insights into RNase J that plays an essential role in Mycobacterium tuberculosis RNA metabolism” (Nature Communications, 2023)

Biological target: the molecule itself
Experiment: SEC

B1: Mycobacterium tuberculosis RNase J, full-length wild type (enzyme)
chain: MDVDLPPPGPLTSGGLRVTALGGINEIGRNMTVFEHLGRLLIIDCGVLFPGHDEPGVDLILPDMRHVEDRLDDIEALVLTHGHEDHIGAIPFLLKLRPDIPVVGSKFTLALVAEKCREYRITPVFVEVREGQSTRHGVFECEYFAVNHSTPDALAIAVYTGAGTILHTGDIKFDQLPPDGRPTDLPGMSRLGDTGVDLLLCDSTNAEIPGVGPSESEVGPTLHRLIRGADGRVIVACFASNVDRVQQIIDAAVALGRRVSFVGRSMVRNMRVARQLGFLRVADSDLIDIAAAETMAPDQVVLITTGTQGEPMSALSRMSRGEHRSITLTAGDLIVLSSSLIPGNEEAVFGVIDALSKIGARVVTNAQARVHVSGHAYAGELLFLYNGVRPRNVMPVHGTWRMLRANAKLAASTGVPQESILLAENGVSVDLVAGKASISGAVPVGKMFVDGLIAGDVGDITLGERLILSSGFVAVTVVVRRGTGQPLAAPHLHSRGFSEDPKALEPAVRKVEAELESLVAANVTDPIRIAQGVRRTVGKWVGETYRRQPMIVPTVIEV
notes: also called Mtb-RNase J; WT; not shown: 6xHis-sumo, N-terminal, cleaved
- stoichiometry N: 2
